Molecular target: human folate receptor 1 (FOLR1) (human)

EC50 of ADCC activity on IGROV-1 cells: 0.16 ng/mL
Substance: MorAb-003 (Farletuzumab) (antibody)
